Measurements taken from patent US20220204580A1 (AstraZeneca / MedImmune, published 2022).
Values belong to the binder of their own block, whether it stands above or below them. Numbered stars: 1 amine (or outer) side, 2 acyl side, 3 side chain; on linkers, the order of the positions; unused ones are H or OH. Bridge positions count the residues as written; N and C are the ends. Square brackets hold non-standard residues; d marks the D form. Side chains are listed from the residue outwards. Ends that are not written are not given here. * marks the point of attachment. C18 diacid = O=C(O)CCCCCCCCCCCCCCCCC(=O)*; γGlu = O=C(O)[C@H](CCC(=O)[*:2])N[*:1]; Aib = CC(C)(N)C(=O)O

Assays:
[1] = target: T1, human calcitonin receptor (human, UniProt P30988 25-474); test: cell-based or functional assay
T1 sequence (looked up): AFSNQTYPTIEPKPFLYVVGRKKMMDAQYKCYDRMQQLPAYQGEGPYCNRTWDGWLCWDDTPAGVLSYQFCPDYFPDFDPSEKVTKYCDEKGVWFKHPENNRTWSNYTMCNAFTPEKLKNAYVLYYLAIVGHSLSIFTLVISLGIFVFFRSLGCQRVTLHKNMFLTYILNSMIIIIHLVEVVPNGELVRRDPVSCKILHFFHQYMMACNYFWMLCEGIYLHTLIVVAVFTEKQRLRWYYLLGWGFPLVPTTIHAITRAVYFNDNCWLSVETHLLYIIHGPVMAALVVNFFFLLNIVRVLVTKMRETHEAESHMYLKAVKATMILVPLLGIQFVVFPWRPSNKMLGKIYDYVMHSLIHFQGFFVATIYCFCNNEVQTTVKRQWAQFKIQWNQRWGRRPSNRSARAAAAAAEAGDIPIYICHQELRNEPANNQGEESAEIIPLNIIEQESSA

[2] = target: T2, human amylin receptor (calcitonin receptor co-expressed with receptor activity modifying protein, RAMP3) (human, UniProt P30988 25-474; O60896 24-148); test: cell-based or functional assay
T2 sequence (looked up) 1: T1 sequence (looked up)
T2 sequence (looked up) 2: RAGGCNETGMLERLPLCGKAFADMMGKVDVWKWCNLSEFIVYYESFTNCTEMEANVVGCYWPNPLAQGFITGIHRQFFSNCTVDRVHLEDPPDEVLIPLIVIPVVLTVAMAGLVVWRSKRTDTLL

B3: Peptide 46 (SEQ ID NO: 46) (peptide)
peptide: K([γGlu-C18 diacid])KCNTATCATQRLAHFLVHSS[Aib]NFGPILPPTNVGSNTY-NH2
modifications: disulfide 3-8; N-terminus assumed
SMILES: CC[C@H](C)[C@H](NC(=O)[C@@H]1CCCN1C(=O)CNC(=O)[C@H](Cc1ccccc1)NC(=O)[C@H](CC(N)=O)NC(=O)C(C)(C)NC(=O)[C@H](CO)NC(=O)[C@H](CO)NC(=O)[C@H](Cc1c[nH]cn1)NC(=O)[C@@H](NC(=O)[C@H](CC(C)C)NC(=O)[C@H](Cc1ccccc1)NC(=O)[C@H](Cc1c[nH]cn1)NC(=O)[C@H](C)NC(=O)[C@H](CC(C)C)NC(=O)[C@H](CCCNC(=N)N)NC(=O)[C@H](CCC(N)=O)NC(=O)[C@@H](NC(=O)[C@H](C)NC(=O)[C@@H]1CSSC[C@H](NC(=O)[C@H](CCCCN)NC(=O)[C@@H](N)CCCCNC(=O)CC[C@H](NC(=O)CCCCCCCCCCCCCCCCC(=O)O)C(=O)O)C(=O)N[C@@H](CC(N)=O)C(=O)N[C@@H]([C@@H](C)O)C(=O)N[C@@H](C)C(=O)N[C@@H]([C@@H](C)O)C(=O)N1)[C@@H](C)O)C(C)C)C(=O)N[C@@H](CC(C)C)C(=O)N1CCC[C@H]1C(=O)N1CCC[C@H]1C(=O)N[C@H](C(=O)N[C@@H](CC(N)=O)C(=O)N[C@H](C(=O)NCC(=O)N[C@@H](CO)C(=O)N[C@@H](CC(N)=O)C(=O)N[C@H](C(=O)N[C@@H](Cc1ccc(O)cc1)C(N)=O)[C@@H](C)O)C(C)C)[C@@H](C)O
EC50 (cAMP production) [1]: 0.362 nM | EC50 (cAMP production) [2]: 0.109 nM | Ratio (EC50 hCTR / EC50 hAMYR3) [2]: 3

B4: Peptide 47 (SEQ ID NO: 47) (peptide)
peptide: K([γGlu-C18 diacid])KCNTATCATQRLAHFLVHSS[Aib]NFGPILPPTNVGSETY-NH2
modifications: disulfide 3-8; N-terminus assumed
SMILES: CC[C@H](C)[C@H](NC(=O)[C@@H]1CCCN1C(=O)CNC(=O)[C@H](Cc1ccccc1)NC(=O)[C@H](CC(N)=O)NC(=O)C(C)(C)NC(=O)[C@H](CO)NC(=O)[C@H](CO)NC(=O)[C@H](Cc1c[nH]cn1)NC(=O)[C@@H](NC(=O)[C@H](CC(C)C)NC(=O)[C@H](Cc1ccccc1)NC(=O)[C@H](Cc1c[nH]cn1)NC(=O)[C@H](C)NC(=O)[C@H](CC(C)C)NC(=O)[C@H](CCCNC(=N)N)NC(=O)[C@H](CCC(N)=O)NC(=O)[C@@H](NC(=O)[C@H](C)NC(=O)[C@@H]1CSSC[C@H](NC(=O)[C@H](CCCCN)NC(=O)[C@@H](N)CCCCNC(=O)CC[C@H](NC(=O)CCCCCCCCCCCCCCCCC(=O)O)C(=O)O)C(=O)N[C@@H](CC(N)=O)C(=O)N[C@@H]([C@@H](C)O)C(=O)N[C@@H](C)C(=O)N[C@@H]([C@@H](C)O)C(=O)N1)[C@@H](C)O)C(C)C)C(=O)N[C@@H](CC(C)C)C(=O)N1CCC[C@H]1C(=O)N1CCC[C@H]1C(=O)N[C@H](C(=O)N[C@@H](CC(N)=O)C(=O)N[C@H](C(=O)NCC(=O)N[C@@H](CO)C(=O)N[C@@H](CCC(=O)O)C(=O)N[C@H](C(=O)N[C@@H](Cc1ccc(O)cc1)C(N)=O)[C@@H](C)O)C(C)C)[C@@H](C)O
EC50 (cAMP production) [1]: 0.468 nM | EC50 (cAMP production) [2]: 0.218 nM | Ratio (EC50 hCTR / EC50 hAMYR3) [2]: 2

Now from value to binder:

EC50 (cAMP production) [1]: 18.9 nM | EC50 (cAMP production) [2]: 0.349 nM | Ratio (EC50 hCTR / EC50 hAMYR3) [2]: 54
B1: Peptide 50 (SEQ ID NO: 50) (peptide)
peptide: K([γGlu-γGlu-C18 diacid])CNTATCATQRLANFLRHSS[Aib]NFGPILPPTEVGSNTY-NH2
modifications: disulfide 2-7; N-terminus assumed
SMILES: CC[C@H](C)[C@H](NC(=O)[C@@H]1CCCN1C(=O)CNC(=O)[C@H](Cc1ccccc1)NC(=O)[C@H](CC(N)=O)NC(=O)C(C)(C)NC(=O)[C@H](CO)NC(=O)[C@H](CO)NC(=O)[C@H](Cc1c[nH]cn1)NC(=O)[C@H](CCCNC(=N)N)NC(=O)[C@H](CC(C)C)NC(=O)[C@H](Cc1ccccc1)NC(=O)[C@H](CC(N)=O)NC(=O)[C@H](C)NC(=O)[C@H](CC(C)C)NC(=O)[C@H](CCCNC(=N)N)NC(=O)[C@H](CCC(N)=O)NC(=O)[C@@H](NC(=O)[C@H](C)NC(=O)[C@@H]1CSSC[C@H](NC(=O)[C@@H](N)CCCCNC(=O)CC[C@H](NC(=O)CC[C@H](NC(=O)CCCCCCCCCCCCCCCCC(=O)O)C(=O)O)C(=O)O)C(=O)N[C@@H](CC(N)=O)C(=O)N[C@@H]([C@@H](C)O)C(=O)N[C@@H](C)C(=O)N[C@@H]([C@@H](C)O)C(=O)N1)[C@@H](C)O)C(=O)N[C@@H](CC(C)C)C(=O)N1CCC[C@H]1C(=O)N1CCC[C@H]1C(=O)N[C@H](C(=O)N[C@@H](CCC(=O)O)C(=O)N[C@H](C(=O)NCC(=O)N[C@@H](CO)C(=O)N[C@@H](CC(N)=O)C(=O)N[C@H](C(=O)N[C@@H](Cc1ccc(O)cc1)C(N)=O)[C@@H](C)O)C(C)C)[C@@H](C)O

EC50 (cAMP production) [1]: 4.14 nM | EC50 (cAMP production) [2]: 0.334 nM | Ratio (EC50 hCTR / EC50 hAMYR3) [2]: 12
B2: Peptide 49 (SEQ ID NO: 49) (peptide)
peptide: K([γGlu-γGlu-C18 diacid])CNTATCATQRLANFLVHSS[Aib]NFGPILPPTEVGSNTY-NH2
modifications: disulfide 2-7; N-terminus assumed
SMILES: CC[C@H](C)[C@H](NC(=O)[C@@H]1CCCN1C(=O)CNC(=O)[C@H](Cc1ccccc1)NC(=O)[C@H](CC(N)=O)NC(=O)C(C)(C)NC(=O)[C@H](CO)NC(=O)[C@H](CO)NC(=O)[C@H](Cc1c[nH]cn1)NC(=O)[C@@H](NC(=O)[C@H](CC(C)C)NC(=O)[C@H](Cc1ccccc1)NC(=O)[C@H](CC(N)=O)NC(=O)[C@H](C)NC(=O)[C@H](CC(C)C)NC(=O)[C@H](CCCNC(=N)N)NC(=O)[C@H](CCC(N)=O)NC(=O)[C@@H](NC(=O)[C@H](C)NC(=O)[C@@H]1CSSC[C@H](NC(=O)[C@@H](N)CCCCNC(=O)CC[C@H](NC(=O)CC[C@H](NC(=O)CCCCCCCCCCCCCCCCC(=O)O)C(=O)O)C(=O)O)C(=O)N[C@@H](CC(N)=O)C(=O)N[C@@H]([C@@H](C)O)C(=O)N[C@@H](C)C(=O)N[C@@H]([C@@H](C)O)C(=O)N1)[C@@H](C)O)C(C)C)C(=O)N[C@@H](CC(C)C)C(=O)N1CCC[C@H]1C(=O)N1CCC[C@H]1C(=O)N[C@H](C(=O)N[C@@H](CCC(=O)O)C(=O)N[C@H](C(=O)NCC(=O)N[C@@H](CO)C(=O)N[C@@H](CC(N)=O)C(=O)N[C@H](C(=O)N[C@@H](Cc1ccc(O)cc1)C(N)=O)[C@@H](C)O)C(C)C)[C@@H](C)O
